Measured values as given in patent US20110195027A1.
Several values for one entry are separate records, joined by “and”; a condition that tells them apart may be missing. Equal values may be shown once.

Columns and labels:
Experiment in all cases: ELISA: antibody coated, supernatant, anti-His-HRP
[1] = target: CD9-ECL2 mutant M4 (human, with rat residues) (UniProt P21926)
[2] = target: p-Myc-His CD9-ECL2 wild type (human)
[3] = target: CD9-ECL2 mutant M1 (human, with rat residues) (UniProt P21926)
CD9-ECL2 mutant M1 (human, with rat residues), sequence (P21926 other isoform, or with tags, fused parts or gaps mutant): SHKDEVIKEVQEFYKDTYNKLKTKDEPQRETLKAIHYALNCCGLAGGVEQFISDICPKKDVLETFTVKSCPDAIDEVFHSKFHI

p-Myc-His CD9-ECL2 wild type (human), sequence (chain, as listed by the source limits assumed): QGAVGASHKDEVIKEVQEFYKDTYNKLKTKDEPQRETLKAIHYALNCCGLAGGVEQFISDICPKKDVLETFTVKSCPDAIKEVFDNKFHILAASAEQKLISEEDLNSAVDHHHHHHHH
CD9-ECL2 mutant M4 (human, with rat residues), sequence (P21926 other isoform, or with tags, fused parts or gaps mutant): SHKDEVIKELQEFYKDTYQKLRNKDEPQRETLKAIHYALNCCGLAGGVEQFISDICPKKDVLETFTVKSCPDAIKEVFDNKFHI

Row | OD490 [1] | OD490 [2] | OD490 [3] | Substance
1 | 0.485 and 0.574 | 0.427 and 0.506 | 0.334 and 0.383 | ALB6 (anti-CD9, Beckman coulter) (antibody)
2 | 0.053 | 0.056 | 0.054 | normal human IgG (antibody)
3 | 0.04 and 0.047 | 0.044 and 0.053 | 0.046 and 0.056 | normal mouse IgG (antibody)
